Laboratory results published in article PMC4126857 (Structure (London, England : 1993), 2014).
Where a chain is given by its changes, count along the chain named. Each block holds one binder with its values, some of them ahead of it. Where no end group is shown, it is not given here.

Columns and labels:
SAXS = molecular target: the molecule itself; experiment: SAXS
6×His-ZYG-1 CPB K454E = molecular target: T1, 6×His-ZYG-1 CPB K454E (C. elegans, UniProt Q9GT24 338-564, K454E); experiment: pull-down
T1 sequence (looked up): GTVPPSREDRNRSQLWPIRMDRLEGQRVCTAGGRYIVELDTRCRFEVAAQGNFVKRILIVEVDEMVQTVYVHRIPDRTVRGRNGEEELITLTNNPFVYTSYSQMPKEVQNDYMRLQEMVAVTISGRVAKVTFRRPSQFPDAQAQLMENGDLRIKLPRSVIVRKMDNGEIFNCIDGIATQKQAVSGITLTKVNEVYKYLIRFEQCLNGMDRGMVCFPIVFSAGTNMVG

B1: Drosophila Plk4 cryptic polo box (DmPlk4 CPB), aa 383-601 (domain or fragment, UniProt O97143 383-601, looked up)
chain: RISVPPLNTKRLLPTRYKTKNAIMSILRNGEVVLEFLKFRPTYNEDRINDICRISDDGQRIIIYQPDPGRGLPVREQPPDLQIPSGDCVYNYDNLPSKHWKKYIYGARFVGLVKSKTPKVTYFSTLGKCQLMETMTDFEIRFYSGAKLLKTPSEGLKVYDRNGMLLSDYSCSESRSLIEHGNECFTHCVNISNALEVAQTKDNSCFPVTIGRRPITDVQ
modifications: for crystallization: lysine methylated; for MST: labelled with Monolith NT.115 Labeling Kit RED-NHS
stoichiometry N (SAXS): 2

B2: ZYG-1 cryptic polo box (CPB), aa 338-564 (domain or fragment, C. elegans, UniProt Q9GT24 338-564, looked up)
chain: T1 sequence (looked up) with E117K
modifications: for crystallization: selenomethionine-substituted, lysine methylated; for MST: labelled with Monolith NT.115 Labeling Kit RED-NHS
stoichiometry N (SAXS): 2

binding result (6×His-ZYG-1 CPB K454E): binds
Binder: MEDDAPMNLCNEQFEEIEDSPIDDNDNESFYNADGDVELEEEEVHE (domain or fragment, C. elegans, UniProt P91870 1-46, looked up, also: MBP fusion) [MBP-CeSPD-2 AR (aa 1-46), WT]
